Numbering of substitutions follows the chain as printed. Like-named read-outs stand apart in the source and are kept apart here.

The record followed here is patent US20260028421A1 (JIANGSU HENGRUI PHARMACEUTICALS, published 2026).

Assay [1] has as its target T1, hGUCY2C ECD-His (human, UniProt P25092 24-430).
T1 construct: also called human GUCY2C protein
Briefly: competition ELISA, row antibody coated; competitor 146 L1H1-biotinylated. (In general: In an ELISA, binding on a coated surface is turned into a signal by an enzyme label.)

Assay [2] addresses T1, hGUCY2C ECD-His. Briefly: competition ELISA, row antibody coated; competitor 81 L3H1-biotinylated.
Assay [3] has as its target T1, hGUCY2C ECD-His. Briefly: competition ELISA, row antibody coated; competitor P3-C7 L7H1-biotinylated.
Assay [4] concerns the target T1, hGUCY2C ECD-His. Put plainly: competition ELISA, row antibody coated; competitor 1608-biotinylated.
Assay [5] deals with T1, hGUCY2C ECD-His. Put plainly: SPR Biacore, antibody captured. An excerpt:
To test the affinity of the GUCY2C monoclonal antibodies of the present disclosure for GUCY2C, in this test example, the instruments Biacore 8K and Biacore T200 were used to detect the ability of the antibodies to bind to hGUCY2C-ECD-His (SEQ ID NO: 3). The specific method is as follows: The antibody was affinity-captured using a Protein A biosensor chip conjugated with an anti-human antibody, then a solution containing GUCY2C Protein flowed on the surface of the chip, and reaction signals were detected in real time with an instrument to obtain association and dissociation curves. After dissociation was completed for each cycle, the biosensor chip was washed with 10 mM glycine-hydrochloric acid (pH 1.5) for regeneration. Data fitting was performed using a 1:1 model.
For orientation: SPR reads the build-up and loss of mass on a sensor chip optically.

Assay [6] addresses T2, Human GUCY2C protein on cells (HCT116/hGUCY2C, HT-55, T84, LS1034, LS174T) (human, UniProt P25092 24-1073).
T2 construct: also called GUCY2C on the cell surface
Briefly: flow cytometry on HCT116/hGUCY2C cells, PE anti-human IgG Fc secondary antibody. A general note: Flow cytometry measures light scatter and fluorescence of single cells or particles in a stream.

The target of assay [7] is T2, Human GUCY2C protein on cells …. The description is as above. The source holds these as a separate data set.
For assay [8] the target is unchanged. The description is as above. The source holds these as a separate data set.
The target in assay [9] is hTSLP (human, UniProt Q969D9 29-159). Put plainly: ELISA.
For assay [10], the target named is hIL5 (human, UniProt P05113 20-134). Briefly: ELISA.

B1: 146 L1H1 (antibody, human IgG1, kappa, V domains shown)
VH: EFQLVQSGAEVKKPGASVKVSCKASGYSFTDYNMNWVRQAPGQRLEWMGLINPKYGTTNYNQKFKGRVTLTVDQSSSTAYMELSSLRSEDTAVYYCARDNYPAWFAYWGQGTTVTVSS
VL: EIVLTQSPATLSLSPGERATLSCSASSSLNYMYWYQQKPGSSPRPWIYRTSQLASGVPARFSGSGSGTDYTLTISSLEPEDFAVYYCQQYHSYPPTFGGGTKVEIKR
notes: humanized, human IgG1/kappa
As a reminder, the Kd is the constant that tells how readily two partners part at equilibrium. Higher therefore signals weaker binding. One may read the koff as a measure of how fast the partners let go of each other. Broadly, the kon is the second-order rate constant of association. Lower therefore signals slower complex formation. Broadly, the EC50 (read off the curve) is the midpoint of the concentration-response curve. A higher EC50 (read off the curve) goes with a less potent agent. Consider B1, for which the relative competition coefficient in assay [1] turned out to be 100; in assay [2], 99; in assay [3] it was 4; in assay [4] it was 12. Binding in assay [5] was put at a Kd of 0.92 nM. The molecule further came in with a koff in [5] of 0.000117 s⁻¹. Moreover, the kon in assay [5] is 127000 M⁻¹ s⁻¹. In addition, the “EC50 (read off the curve)” value in assay [6] is roughly 2 nM.

B2: 81 L3H1 (antibody, human IgG1, kappa, V domains shown)
VH: EVQLVQSGAEVKKPGASVKVSCKASGYTFTDHNMNWVKQAPGQRLEWMGVMNPKFGTINYNQKFKDKATITRDTSASTAYMELSSLRSEDTAVYYCARDNYPNYFDYWGQGTTVTVSS
VL: DIQLTQSPSFLSASPGDRVTITCSASSSVNYMYWYQQKPGSSPKSWIYRTSNLASGVPSRFSGSGSGTEYTLTISSLQPEDFATYYCQQYHDYPPTFGGGTKVEIKR
notes: humanized, human IgG1/kappa
As to B2, the relative competition coefficient in assay [1] was found to be 81; in assay [2], 100; in assay [3] it was 3; in [4], 11. In assay [5], this molecule had a Kd of 0.29 nM. Besides, the koff in [5] was determined as 5.19e-05 s⁻¹. The molecule further registered a kon in [5] of 181000 M⁻¹ s⁻¹. For the same molecule, in assay [6], the “EC50 (read off the curve)” value is roughly 1 nM.

B3: 1608 (antibody, human IgG1, kappa, V domains shown)
VH: EVQLVESGGGLVQPGGSLRLSCAASGFTFSSYWMHWVRQAPGKGLEWIGEIKPSNELTNVHEKFKDRFTISVDKAKNSAYLQMNSLRAEDTAVYYCTRTITTTEGYWFFDVWGQGTLVTVSS
VL: DIQLTQSPSSLSASVGDRVTITCRASESVDYYGSSLLQWYQQKPGKAPKLLIYAASKLASGVPSRFSGSGSGTDFTLTISSLQPEDFATYYCQQTRKAYTFGQGTKLEIKR
With B3, the relative competition coefficient in [1] was 12; in assay [2], 6; in assay [3], 3; in assay [4] it was 100. For the same molecule, the “EC50 (read off the curve)” value in assay [7], in [8] and in [6] was roughly 0.3 nM each time.

B4: P3-F6 CHI (antibody, human IgG1, kappa, V domains shown)
VH: EVQLQQSGPELVKPGASVKISCKASGYTFTDYYMNWVKQSHGKSLEWIGDINPNNGGTSYNQKFKGKATLTVDKSSSTAYMELRSLTSEDSAVYYCARKTWLPYASVYWGQGTSVTVSS
VL: DVVMTQTPLSLPVSLGDQASISCRSSQSLVHSNGNTYLHWYLQKPGQSPKLLIYKVSNRFSGVPDRFSGSGSGTDFTLKISRVEAEDLGVYFCSQSTHVPPYTFGGGTKLEIKR
notes: chimeric
On to B4, for which, in assay [7], the “EC50 (read off the curve)” value is roughly 2 nM. In assay [5], this molecule showed a Kd of 37 nM, a koff of 0.000245 s⁻¹ and a kon of 6610 M⁻¹ s⁻¹.

B5: P3-C7 L7H1 (antibody, human IgG1, kappa, V domains shown)
VH: EVQLVQSGAEVKKPGASVKVSCKASGYTFTDHYIHWVRQAPGQGLEWMGVINPYNDGATYNQKFKGRVTMTVDKSTSTVYMELSSLRSEDTAVYYCARPPRAYGNYAGYWGQGTTVTVSS
VL: DVVMTQTPLSLPVTPGEPASISCRSSQSLVHSNQNTYLHWYLQKPGQSPQLLIYKVSNRFSGVPDRFSGSGSRTDFTLKISRVEAEDVGVYYCSQSTHVPYTFGGGTKVEIKR
notes: humanized, human IgG1/kappa
Regarding B5, the relative competition coefficient in [1] amounted to 13; in assay [2] it was 6; in [3] it was 100; in assay [4], 10. The same molecule displayed a dissociation constant (Kd) in [5] of 7.77 nM. Also, the koff in [5] amounted to 0.000186 s⁻¹. In assay [5], this molecule came in with a kon of 23900 M⁻¹ s⁻¹. For the same molecule, the “EC50 (read off the curve)” value in assay [6] is roughly 2 nM.

B6: P1-D2 CHI (antibody, human IgG1, kappa, V domains shown)
VH: EFQLQQSGPELVKPGASVKISCKASGYSFTDHNMNWVKQSNGKSLEWIGVINPKYGTISNNQKFKGKATLTVDQSSSTAYMQLNSLTAEDSAVYYCARDDYPNYFDYWGQGTTLTVSS
VL: QIVLTQSPAIMSASPGEKVTISCSANSSVNYIYWYQQKPGSSPKPWIYRTSNLASGVPARFSGSGSGTSYSLTISSMEAEDAATYYCQQYHSFPPTFGGGTKLEIKR
notes: chimeric
In assay [5], B6 showed a Kd of 0.92 nM, a koff of 0.00018 s⁻¹ and a kon of 195000 M⁻¹ s⁻¹. The “EC50 (read off the curve)” value in assay [8] was roughly 0.7 nM.

B7: HJ-11 (bispecific antibody)
chain 1: not shown
chain 2: DIQMTQSPSSVSASVGDRVTITCRASQDIANYLSWYQQKPGKSPKLLIYGTSNLEVGVPSRFSGSRSGTDFTLTISSLQPEDFATYYCLQDKEFPRTFGGGTKVEIKRTVASSGCPRFLTRPKASVVSVGKDATLSCQIVGNPFPQVSWEKDKQPVTAGVRFRLAQDGDLYRLKILDLQLSDSGQYVCRARNAHGEAFACLGLQVDAEA
chain 3: EVQLVQSGAEVKKPGSSVKVSCKASGYTFSNYLIEWVRQAPGQGLEWIGVIDPGVGDTNYNENFKGRATLTADKSTSTAYIELSSLRSEDTAVYYCAREDNTGTAFDYWGQGTTVTVSSASTKGPSVFPLAPSSKSTSGGTAALGCLVKDYFPEPVTVSWNSGALTSGVHTFPAVLQSSGLYSLSSVVTVPSSSLGTQTYICNVNHKPSNTKVDKKVEPKSCDKTHTCPPCPAPEAAGGPSVFLFPPKPKDTLMISRTPEVTCVVVDVSHEDPEVKFNWYVDGVEVHNAKTKPREEQYNSTYRVVSVLTVLHQDWLNGKEYKCKVSNKALPAPIEKTISKAKGQPREPQVCTLPPSREEMTKNQVSLSCAVKGFYPSDIAVEWESNGQPENNYKTTPPVLDSDGSFFLVSKLTVDKSRWQQGNVFSCSVMHEALHNHYTQKSLSLSPGK
chain 4: SIVMTQTPLSLSVTPGQPASISCKASQSVSSDVTWYLQKPGQSPQLLIYYVSEHYTGVPDRFSGSGYGTDFTLKISRVEAEDVGVYYCQQHHRFPLTFGQGTKLEIKRTVAAPSVFIFPPSDEQLKSGTASVVCLLNNFYPREAKVQWKVDNALQSGNSQESVTEQDSKDSTYSLSSTLTLSKADYEKHKVYACEVTHQGLSSPVTKSFNRGEC
Usually EC50 stands for the concentration at which the effect is half-maximal. Higher therefore signals a less potent agent. Regarding B7, the EC50 is 3 nM in [9] and 9.46 nM in assay [10].

B8: P1-D3 CHI (antibody, human IgG1, kappa, V domains shown)
VH: QIQLIQSGPELKKPGETVKISCKASGYTFTTYGMSWVKQAPGKGLKWMGWINTYSGVPTYADDFKGRFAFSLETSANTAYLQINNLKNEDTATYFCARRGYSNLYYYALDYWGQGASVTVSS
VL: QIVLTQSPAIMSASPGEKVTMTCSASSSVNYMHWYQQKSGTSPKRWIYDTSKLASGVPTRFSGSGSGTSYSLTISSMEAEDAATYFCQQWSSNPSTFGGGTKLEIKR
notes: chimeric
Take B8: in assay [5], the affinity, expressed as Kd, was 5.06 nM; the koff came to 0.000233 s⁻¹; the kon worked out at 46000 M⁻¹ s⁻¹. Moreover, the “EC50 (read off the curve)” value in [8] was roughly 1 nM.

B9: P3-B4 CHI (antibody, human IgG1, kappa, V domains shown)
VH: B8 VH with I5V, T17I, N77S, G100A, Y101G, N103S, L109M, A116T
VL: B8 VL with N30S, H33L, T59A, F86Y, S95P
notes: chimeric
B9: the “EC50 (read off the curve)” value in assay [7] was roughly 2 nM. Besides, in assay [5], the dissociation constant Kd turned out to be 8.28 nM, the koff was 0.000214 s⁻¹ and the kon was 25800 M⁻¹ s⁻¹.

B10: P1-F10 CHI (antibody, human IgG1, kappa, V domains shown)
VH: EVQLVESGGGLVKPGGSLKLSCAASGFAFSDYGMHWVRQAPEKGLEWVAHISSGSSTIYYADTVKGRFTISRDNVKNTLFLQMTSLRSEDTAMYYCARSRNYYGSRVFDYWGQGTPLTVSS
VL: QIVLTQSPALMSVSPGEKVTMTCSASSSVNYMYWYQQKPRSSPKPWIYLTSNLASGVPARFSGSGSGTSYSLTISSMEAEDAATYYCQQWNSNPPTFGSGTKLEIKR
notes: chimeric
In [5], B10 registered a Kd of 8.64 nM, a koff of 0.000279 s⁻¹ and a kon of 32300 M⁻¹ s⁻¹. Further, the “EC50 (read off the curve)” value in [8] was roughly 0.6 nM.

B11: P1-D9 CHI (antibody, human IgG1, kappa, V domains shown)
VH: B10 VH with A28S, V48I, V75A, V107I, P116T
VL: B10 VL with L10R, V13A, N30S, N91S
notes: chimeric
In [5], B11 registered a Kd of 19.6 nM, a koff of 0.000399 s⁻¹ and a kon of 20300 M⁻¹ s⁻¹. In addition, in assay [8], the concentration for a half-maximal effect (EC50 (read off the curve)) is roughly 0.7 nM.

B12: P3-D9 CHI (antibody, human IgG1, kappa, V domains shown)
VH: B10 VH with A61G, V75A, A97T, P116T
VL: B10 VL with N30S, N52S, S75N, S76N, M77V, N91S, L103V
notes: chimeric
Take B12: the “EC50 (read off the curve)” value in [7] was roughly 1 nM. In addition, in assay [5], the Kd was determined as 26.5 nM, the koff turned out to be 0.000504 s⁻¹ and the kon stood at 19000 M⁻¹ s⁻¹.
